Experiment [1] concerns the target CLDN18.2 endogenously expressed on SNU620 gastric cancer cells (UniProt P56856). Kind of experiment: FACS Exp. 3, SNU620 cells.
In experiment [2] the target is T1, human Claudin 18.2 (CLDN18.2) (human, UniProt P56856-2 1-261). Kind of experiment: FACS Exp. 1, MFI ratio CHO-18.2 over CHO-18.1.
Experiment [3] addresses T1, human Claudin 18.2 (CLDN18.2). Kind of experiment: FACS Exp. 2, MFI ratio CHO-18.2 over CHO-18.1.
For experiment [4] the target is unchanged. Kind of experiment: FACS.
Experiment [5] has the same target. Kind of experiment: cell-based or functional assay.
The target is the same in experiment [6]. Kind of experiment: cell-based or functional assay. This is another data set of the same source.
Experiment [7] has the same target. Nature of the experiment: cell-based or functional assay. This is another data set of the same source.
Experiment [8] has the same target. Kind of experiment: cell-based or functional assay. This is another data set of the same source.
Experiment [9] has the same target. Nature of the experiment: FACS on CHO-CLDN18.2 cells.
Experiment [10] has the same target. Kind of experiment: FACS on CHO-CLDN18.2 cells. The source holds these as a separate data set.
Procedure: Binding curves were generated to rank the binding affinities of hybridoma antibodies. Briefly, a total of 1×10⁵ CHO-CLDN18.2 cells for each well were seeded in 96-well plate and washed by FACS buffer (DPBS containing 2% FBS) twice. Cells were incubated by series diluted purified hybridoma antibodies for 1 h. After primary antibody incubation, cells were washed by FACS buffer for two times. […] FlowJo software was used for analysis. Data was plotted as the logarithm of antibody concentration versus mean fluorescence signals. Nonlinear regression analysis was performed by GraphPad Prism 6 (GraphPad Software) and EC50 values were calculated.

Where two headings read alike, the source gives them in different places.

With human IgG1 isotype control (antibody), the MFI SNU620 (@30 ug/ml) in experiment [1] came to 15.7 MFI. The MFI CHO-18.2/CHO-18.1 (@30 ug/ml) turned out to be 1.1 in experiment [2] and 1 in [3].

B1: 282A12F3-VH-N60E (antibody, human IgG1, kappa, V domains shown)
VH: QVQLKESGPVLVQPSQTLSLTCTVAGFSLTSYNVYWVRQPPGKGLEWMGVIWNTGATRYESTLKSRLSISKDTSKSQVFLKMNSLQTEDTATYYCARDSAMPAIPFAYWGQGTLVTVSS
VL: DIVMTQSPSSLAVSAGETVTINCKSSQSLFGSVRQKNYLAWYQQKPGQSPKLLIYLASTRESGVPDRFIGSGSGTDFTLTISSVQAEDLAKYYCQQYYDIPWTFGGGTKLELKR
notes: chimeric human IgG1, PTM site removed
For the molecule B1, the binding result in experiment [4] was “binds”.

B2: 282A12F3-VH-N60Q (antibody, human IgG1, kappa, V domains shown)
VH: QVQLKESGPVLVQPSQTLSLTCTVAGFSLTSYNVYWVRQPPGKGLEWMGVIWNTGATRYQSTLKSRLSISKDTSKSQVFLKMNSLQTEDTATYYCARDSAMPAIPFAYWGQGTLVTVSS
VL: DIVMTQSPSSLAVSAGETVTINCKSSQSLFGSVRQKNYLAWYQQKPGQSPKLLIYLASTRESGVPDRFIGSGSGTDFTLTISSVQAEDLAKYYCQQYYDIPWTFGGGTKLELKR
notes: as for B1
Regarding B2, the binding result in experiment [4] is reported as “binds”.

B3: 413H9F8-H2L2 (antibody, V domains shown)
VH: EVQLVESGGGLVQPGGSLRLSCAASGFTFSSFGMHWVRQAPGKGLEWVAYISSGSSPIYYVDKLKGRFTISRDNAKNSLYLQMNSLRAEDTAVYYCARAGYAVRNALDYWGQGTLVTVSS
VL: DIVMTQSPDSLAVSLGERATINCKSSQSLLNVGNQKNYLAWYQQKPGQPPKLLIYGASTRESGVPDRFSGSGSGTDFTLTISSLQAEDVAVYFCQNDLFYPLTFGGGTKVEIK
notes: humanized IgG; constant regions not specified
With B3, in experiment [5], the “% ADCC @ 6.67 nM, NCI-N87-CLDN18.2, FcR-TANK” value amounted to 13.7% and the “ADCC EC50, NCI-N87-CLDN18.2, FcR-TANK” value was found to be 0.33 nM. In experiment [6], the “% specific cytotoxicity @ 6.67 nM, NUGC4-CLDN18.2, PBMC” value stood at 33.2% and the “ADCC EC50, NUGC4-CLDN18.2, PBMC” value was determined as 6.14 nM. Besides, the “ADCC EC50, NUGC4-CLDN18.2, PBMC” value in experiment [7] was 0.48 nM. Besides, the “CDC EC50, human serum, CHO-CLDN18.2” value in experiment [8] turned out to be 0.84 nM. The same molecule yielded an EC50 in [9] of 1.97 nM.

B4: 413H9F8-H2L2-V2-DL (antibody, V domains shown)
VH: EVQLVESGGGLVQPGGSLRLSCAASGFTFSSFGMHWVRQAPGKGLEWVAYISSGSSPIYYVDKLKGRFTISRDNAKNSLYLQMNSLRAEDTAVYYCARAGYAVRNALDYWGQGTLVTVSS
VL: DIVMTQSPDSLAVSLGERATINCKSSQSLLNVGNQKNYLAWYQQKPGQPPKLLIYGASTRESGVPDRFSGSGSGTDFTLTISSLQAEDVAVYFCQNDLFYPLTFGGGTKVEIK
As to B4, in experiment [7], the “ADCC EC50, NUGC4-CLDN18.2, PBMC” value was 0.0148 nM.

B5: 413H9F8-H2L2-MG-DL (antibody, V domains shown)
VH: EVQLVESGGGLVQPGGSLRLSCAASGFTFSSFGMHWVRQAPGKGLEWVAYISSGSSPIYYVDKLKGRFTISRDNAKNSLYLQMNSLRAEDTAVYYCARAGYAVRNALDYWGQGTLVTVSS
VL: DIVMTQSPDSLAVSLGERATINCKSSQSLLNVGNQKNYLAWYQQKPGQPPKLLIYGASTRESGVPDRFSGSGSGTDFTLTISSLQAEDVAVYFCQNDLFYPLTFGGGTKVEIK
With B5, in experiment [7], the “ADCC EC50, NUGC4-CLDN18.2, PBMC” value stood at 0.0046 nM.

B6: 357B8F8 (mouse hybridoma antibody) (antibody, V domains shown)
VH: QVQLKESGPGLVAPSQSLSITCTVSGFSLTSYGVHWVRQPPGKGLEWLGVIWPGGNTNYNSALMSRLSISKDNSKSQVFLKMNSLQTDDTAMYYCARDRRLAMDYWGQGTSVTVSS
VL: DIVMTQSPSSLTVTAGEKVTMTCKSSQSLLNSGNQKNYLTWYQQKPGQPPKLLIYWASTRESGVPDRFTGSGSGTDFTLTISILQAEDLAVYYCQNDYSYPFTFGSGTKLEIK
notes: purified mouse IgG from hybridoma
In experiment [10], B6 had an EC50 of 3.26 nM.

B7: Ms175D10 (antibody, V domains shown)
VH: QVQLQQPGAELVRPGASVKLSCKASGYTFTSYWINWVKQRPGQGLEWIGNIYPSDSYTNYNQKFKDKATLTVDKSSSTAYMQLSSPTSEDSAVYYCTRSWRGNSFDYWGQGTTLTVSS
VL: DIVMTQSPSSLTVTAGEKVTMSCKSSQSLLNSGNQKNYLTWYQQKPGQPPKLLIYWASTRESGVPDRFTGSGSGTDFTLTISSVQAEDLAVYYCQNDYSYPFTFGSGTKLEIK
Regarding B7, in experiment [10], it took 3.68 nM to reach a half-maximal effect (EC50). This EC50 and that of the molecule before are within 1.5-fold of each other.

B8: 364D1A7-VL-N31E (antibody, human IgG1, kappa, V domains shown)
VH: DVQLVESGGGLVQPGGSRKLSCAASGFTFSSFGMHWVRQAPEKGLEWVAYISSGSGSIYYADTVKGRFTLSRDNPKNTLFLQMTSLRSEDTAIYYCATSYYYGNALEYWGQGTSVTVSS
VL: DVVLTQSPSSLTVTEGEKVSMSCKSSQSLFESGNQKNYLTWYQQKPGQTPTLLIYWASTRKSGVPDRFTGSGSGTDFTLTINTVQAEDLAVYYCQNVYSYPLTFGAGTKLDLKR
notes: as for B1
As to B8, the binding result in experiment [4] was “binds”.

B9: 364D1A7 (mouse hybridoma antibody) (antibody, V domains shown)
VH: DVQLVESGGGLVQPGGSRKLSCAASGFTFSSFGMHWVRQAPEKGLEWVAYISSGSGSIYYADTVKGRFTLSRDNPKNTLFLQMTSLRSEDTAIYYCATSYYYGNALEYWGQGTSVTVSS
VL: DVVLTQSPSSLTVTEGEKVSMSCKSSQSLFNSGNQKNYLTWYQQKPGQTPTLLIYWASTRKSGVPDRFTGSGSGTDFTLTINTVQAEDLAVYYCQNVYSYPLTFGAGTKLDLK
notes: as for B6
In [10], B9 had an EC50 of 5.22 nM.

B10: hz282-9 (antibody, V domains shown)
VH: QVQLQESGPGLVKPSETLSLTCTVSGFSLTSYNVYWIRQPPGKGLEWIGVIWNTGATRYNSALKSRVTISVDTSKNQFSLKLSSVTAADTAVYYCARDSAMPAIPFAYWGQGTLVTVSS
VL: DIQMTQSPSSLSASVGDRVTITCKSSQSLFGSVRQKNYLAWYQQKPGKAPKLLIYLASTRESGVPSRFSGSGSGTDFTLTISSLQPEDFATYYCQQYYDIPWTFGGGTKVEIK
notes: as for B3
B10: in experiment [1], the MFI SNU620 (@30 ug/ml) worked out at 308 MFI. Besides, in experiment [2], the “MFI_CHO-18.2/CHO-18.1 (@30 ug/ml)” value amounted to 163.

B11: hz282-13 (antibody, V domains shown)
VH: QVQLQESGPGLVKPSETLSLTCTVSGFSLTSYNVYWIRQPPGKGLEWIGVIWNTGATRYNSALKSRVTISVDTSKNQFSLKLSSVTAADTAVYYCARDSAMPAIPFAYWGQGTLVTVSS
VL: DIQMTQSPSSLSASVGDRVTITCKSSQSLFGSVRQKNYLAWYQQKPGKSPKLLIYLASTRESGVPDRFSGSGSGTDFTLTISSLQPEDFAKYYCQQYYDIPWTFGGGTKVEIK
notes: as for B3
B11 came in with an MFI SNU620 (@30 ug/ml) in experiment [1] of 144 MFI. For the same molecule, the “MFI_CHO-18.2/CHO-18.1 (@30 ug/ml)” value in experiment [2] is 201.

B12: hz282-17 (antibody, V domains shown)
VH: QVQLQESGPGLVKPSETLSLTCTVSGFSLTSYNVYWIRQPPGKGLEWIGVIWNTGATRYNSALKSRVTISVDTSKNQFSLKLSSVTAADTAVYYCARDSAMPAIPFAYWGQGTLVTVSS
VL: DIVMTQSPSSLSASVGDRVTINCKSSQSLFGSVRQKNYLAWYQQKPGKSPKLLIYLASTRESGVPDRFSGSGSGTDFTLTISSLQPEDFAKYYCQQYYDIPWTFGGGTKVEIK
notes: as for B3
As for B12, in [1], the MFI SNU620 (@30 ug/ml) stood at 176 MFI. Also, the “MFI_CHO-18.2/CHO-18.1 (@30 ug/ml)” value in [2] came out at 249.

B13: 413H9F8-VL-N31E (antibody, human IgG1, kappa, V domains shown)
VH: DVQLVESGGGSVQPGGSRRLSCAASGFTFSSFGMHWVRQAPEKGLEWVAYISSGSSPIYYVDKLKGRFTVSRDNPKNTLFLQMTSLRSEDTAMYYCARAGYAVRNALDYWGQGTSITVSS
VL: DIVMTQSPSSLSVSVGEKVTLSCKSSQSLLESGNQKNYLAWYQQKTGQPPKLLIYGASTRESGVPDRFIGSGSGTDFTLTISSVQAEDLAVYFCQNDLFYPLTFGAGTKLELKR
notes: as for B1
On to B13, for which the binding result in experiment [4] is listed as “binds”.

B14: 413H9F8 (mouse hybridoma antibody) (antibody, V domains shown)
VH: DVQLVESGGGSVQPGGSRRLSCAASGFTFSSFGMHWVRQAPEKGLEWVAYISSGSSPIYYVDKLKGRFTVSRDNPKNTLFLQMTSLRSEDTAMYYCARAGYAVRNALDYWGQGTSITVSS
VL: DIVMTQSPSSLSVSVGEKVTLSCKSSQSLLNSGNQKNYLAWYQQKTGQPPKLLIYGASTRESGVPDRFIGSGSGTDFTLTISSVQAEDLAVYFCQNDLFYPLTFGAGTKLELK
notes: as for B6
The molecule B14 returned an EC50 in experiment [10] of 8.3 nM.

For the origin of these results see US20210380680A1 (ZLLP, published 2021).
